Values of other authors in article PMC7752828.

Key:
[1] = biological target: Fibrin E-domain E-domain (Homo sapiens) (UniProt P02671)
[2] = biological target: Fibrin(ogen) gamma' chain γ'-domain (Homo sapiens) (UniProt P02679)

## Thrombin (from UniProt P00734)
[1]
  Kd: 2.8 µM
[2]
  Kd: 0.1 µM
